In patent US20160264649A1:

Tests used:
Assay in all cases: cell-based or functional assay
[1] = biological target: HIV-1 Env of isolate 6535.3 (HIV-1)
[2] = biological target: HIV-1 Env of isolate 92 BR 020 (HIV-1)
[3] = biological target: HIV-1 Env of isolate 93IN905 (HIV-1)
[4] = biological target: HIV-1 Env of isolate 93MW959 (HIV-1)
[5] = biological target: HIV-1 Env of isolate 93TH305 (HIV-1)
[6] = biological target: HIV-1 Env of isolate 97ZA012 (HIV-1)
[7] = biological target: HIV-1 Env of isolate 98IN022 (HIV-1)
[8] = biological target: HIV-1 Env of isolate APV_13 (HIV-1)
[9] = biological target: HIV-1 Env of isolate APV_17 (HIV-1)
[10] = biological target: HIV-1 Env of isolate APV_6 (HIV-1)
[11] = biological target: HIV-1 Env of isolate CAAN.A2 (HIV-1)
[12] = biological target: HIV-1 Env of isolate JRCSF (HIV-1) (UniProt P20871)
[13] = biological target: HIV-1 Env of isolate JRFL (HIV-1)
[14] = biological target: HIV-1 Env of isolate MGRM-Chronic-B-001 (HIV-1)
[15] = biological target: HIV-1 Env of isolate MGRM-Chronic-B-002 (HIV-1)
[16] = biological target: HIV-1 Env of isolate MGRM-Chronic-B-003 (HIV-1)
[17] = biological target: HIV-1 Env of isolate MGRM-Chronic-B-004 (HIV-1)
[18] = biological target: HIV-1 Env of isolate MGRM-Chronic-B-008 (HIV-1)
[19] = biological target: HIV-1 Env of isolate MGRM-Chronic-B-010 (HIV-1)
[20] = biological target: HIV-1 Env of isolate MGRM-Chronic-B-011 (HIV-1)
[21] = biological target: HIV-1 Env of isolate MGRM-Chronic-B-012 (HIV-1)
[22] = biological target: HIV-1 Env of isolate MGRM-Chronic-B-017 (HIV-1)
[23] = biological target: HIV-1 Env of isolate MGRM-Chronic-B-018 (HIV-1)
[24] = biological target: HIV-1 Env of isolate MGRM-Chronic-B-020 (HIV-1)
[25] = biological target: HIV-1 Env of isolate MGRM-Chronic-B-023 (HIV-1)
[26] = biological target: HIV-1 Env of isolate MGRM-Chronic-B-024 (HIV-1)
[27] = biological target: HIV-1 Env of isolate NL43 (HIV-1)
[28] = biological target: HIV-1 Env of isolate PVO.4 (HIV-1)
[29] = biological target: HIV-1 Env of isolate QH0692.42 (HIV-1)
[30] = biological target: HIV-1 Env of isolate SC422661.8 (HIV-1)
[31] = biological target: HIV-1 Env of isolate SF162 (HIV-1) (UniProt P19550)
[32] = biological target: HIV-1 Env of isolate THR0.18 (HIV-1)
[33] = biological target: HIV-1 Env of isolate TRJ04551.58 (HIV-1)
[34] = biological target: HIV-1 Env of isolate TRO.11 (HIV-1)
[35] = biological target: HIV-1 Env of isolate VLGCB3 (HIV-1)

Chain of PGT-136 monoclonal antibody (5329_C19; 5366_P21) (VH): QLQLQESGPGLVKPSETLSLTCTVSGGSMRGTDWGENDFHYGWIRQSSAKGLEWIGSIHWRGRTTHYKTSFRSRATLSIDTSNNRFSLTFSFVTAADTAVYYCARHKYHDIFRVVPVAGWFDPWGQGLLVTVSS
Chain of PGT-136 monoclonal antibody (5329_C19; 5366_P21) (VL): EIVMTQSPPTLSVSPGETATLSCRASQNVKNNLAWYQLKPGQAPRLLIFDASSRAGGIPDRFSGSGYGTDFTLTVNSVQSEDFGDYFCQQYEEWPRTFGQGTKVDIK
Chain of PGT-137 monoclonal antibody (5345_I01) (VH): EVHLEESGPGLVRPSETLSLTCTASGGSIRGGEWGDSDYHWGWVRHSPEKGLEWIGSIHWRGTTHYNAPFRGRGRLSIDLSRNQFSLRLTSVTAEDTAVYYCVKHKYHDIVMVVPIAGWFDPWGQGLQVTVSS
Chain of PGT-137 monoclonal antibody (5345_I01) (VL): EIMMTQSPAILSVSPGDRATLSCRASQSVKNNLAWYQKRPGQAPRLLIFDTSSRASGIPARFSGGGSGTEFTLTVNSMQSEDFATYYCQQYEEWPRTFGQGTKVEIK

Row | Substance | neutralization IC50 [1] [µg/mL] | neutralization IC50 [2] [µg/mL] | neutralization IC50 [3] [µg/mL] | neutralization IC50 [4] [µg/mL] | neutralization IC50 [5] [µg/mL] | neutralization IC50 [6] [µg/mL] | neutralization IC50 [7] [µg/mL] | neutralization IC50 [8] [µg/mL] | neutralization IC50 [9] [µg/mL] | neutralization IC50 [10] [µg/mL] | neutralization IC50 [11] [µg/mL] | neutralization IC50 [12] [µg/mL] | neutralization IC50 [13] [µg/mL] | neutralization IC50 [14] [µg/mL] | neutralization IC50 [15] [µg/mL] | neutralization IC50 [16] [µg/mL] | neutralization IC50 [17] [µg/mL] | neutralization IC50 [18] [µg/mL] | neutralization IC50 [19] [µg/mL] | neutralization IC50 [20] [µg/mL] | also measured
1 | PGT-128 monoclonal antibody (5114_A19) | 0.011 | 0.009 | 0.009 | 0.045 | 0.006 | 0.019 | 0.014 | 0.008 | 0.016 | 0.007 | 1.48 | 0.003 | 0.007 | > 50 | 0.036 | 0.007 | 0.009 | 0.143 | 0.004 | 0.02 | neutralization IC50 [21]: 0.026 µg/mL; neutralization IC50 [22]: > 50 µg/mL; neutralization IC50 [23]: 0.02 µg/mL; neutralization IC50 [24]: 0.007 µg/mL; neutralization IC50 [25]: > 50 µg/mL; neutralization IC50 [26]: > 50 µg/mL; neutralization IC50 [27]: > 50 µg/mL; neutralization IC50 [28]: 0.005 µg/mL; neutralization IC50 [29]: 0.029 µg/mL; neutralization IC50 [30]: 1.58 µg/mL; neutralization IC50 [31]: 0.007 µg/mL; neutralization IC50 [32]: > 50 µg/mL; neutralization IC50 [33]: 0.019 µg/mL; neutralization IC50 [34]: 0.018 µg/mL; neutralization IC50 [35]: 0.012 µg/mL
2 | PGT-131 monoclonal antibody (5136_H01) | 0.056 | 6.16 | 0.177 | > 50 | 0.016 | 1.81 | > 50 | 0.189 | > 50 | > 50 | > 50 | 0.029 | 0.454 | > 50 | > 50 | > 50 | 0.04 | > 50 | 0.016 | 6.47 | neutralization IC50 [21]: 15.7 µg/mL; neutralization IC50 [22]: > 50 µg/mL; neutralization IC50 [23]: > 50 µg/mL; neutralization IC50 [24]: 0.053 µg/mL; neutralization IC50 [25]: > 50 µg/mL; neutralization IC50 [26]: > 50 µg/mL; neutralization IC50 [27]: > 50 µg/mL; neutralization IC50 [28]: > 50 µg/mL; neutralization IC50 [29]: > 50 µg/mL; neutralization IC50 [30]: > 50 µg/mL; neutralization IC50 [31]: 0.025 µg/mL; neutralization IC50 [32]: > 50 µg/mL; neutralization IC50 [33]: 0.088 µg/mL; neutralization IC50 [34]: 1.91 µg/mL; neutralization IC50 [35]: > 50 µg/mL
3 | PGT-130 monoclonal antibody (5147_N06) | 0.031 | 1.4 | 0.02 | 8.55 | 0.021 | 1.32 | > 50 | 0.052 | 10.7 | > 50 | > 50 | 0.01 | 0.046 | > 50 | > 50 | > 50 | 0.01 | 5.18 | 0.006 | 0.153 | neutralization IC50 [21]: 0.373 µg/mL; neutralization IC50 [22]: > 50 µg/mL; neutralization IC50 [23]: 31.9 µg/mL; neutralization IC50 [24]: 0.014 µg/mL; neutralization IC50 [25]: > 50 µg/mL; neutralization IC50 [26]: 5.78 µg/mL; neutralization IC50 [27]: > 50 µg/mL; neutralization IC50 [28]: 5.17 µg/mL; neutralization IC50 [29]: > 50 µg/mL; neutralization IC50 [30]: > 50 µg/mL; neutralization IC50 [31]: 0.007 µg/mL; neutralization IC50 [32]: > 50 µg/mL; neutralization IC50 [33]: 0.023 µg/mL; neutralization IC50 [34]: 0.257 µg/mL; neutralization IC50 [35]: 4.6 µg/mL
4 | PGT-136 monoclonal antibody (5329_C19; 5366_P21) | > 50 | 8.61 | 0.011 | > 50 | 20.2 | > 50 | 13.6 | > 50 | > 50 | > 50 | > 50 | > 50 | > 50 | > 50 | > 50 | > 50 | > 50 | > 50 | > 50 | > 50 | neutralization IC50 [21]: 43.1 µg/mL; neutralization IC50 [22]: > 50 µg/mL; neutralization IC50 [23]: > 50 µg/mL; neutralization IC50 [24]: > 50 µg/mL; neutralization IC50 [25]: > 50 µg/mL; neutralization IC50 [26]: > 50 µg/mL; neutralization IC50 [27]: 27.7 µg/mL; neutralization IC50 [28]: > 50 µg/mL; neutralization IC50 [29]: > 50 µg/mL; neutralization IC50 [30]: > 50 µg/mL; neutralization IC50 [31]: 0.482 µg/mL; neutralization IC50 [32]: > 50 µg/mL; neutralization IC50 [33]: > 50 µg/mL; neutralization IC50 [34]: 0.073 µg/mL; neutralization IC50 [35]: > 50 µg/mL
5 | PGT-137 monoclonal antibody (5345_I01) | > 50 | 7.81 | 0.042 | > 50 | > 50 | > 50 | 0.408 | > 50 | > 50 | > 50 | > 50 | > 50 | > 50 | > 50 | > 50 | > 50 | > 50 | > 50 | > 50 | > 50 | neutralization IC50 [21]: > 50 µg/mL; neutralization IC50 [22]: > 50 µg/mL; neutralization IC50 [23]: > 50 µg/mL; neutralization IC50 [24]: 32.9 µg/mL; neutralization IC50 [25]: > 50 µg/mL; neutralization IC50 [26]: > 50 µg/mL; neutralization IC50 [27]: 17.4 µg/mL; neutralization IC50 [28]: > 50 µg/mL; neutralization IC50 [29]: > 50 µg/mL; neutralization IC50 [30]: > 50 µg/mL; neutralization IC50 [31]: 3.41 µg/mL; neutralization IC50 [32]: > 50 µg/mL; neutralization IC50 [33]: > 50 µg/mL; neutralization IC50 [34]: 9.35 µg/mL; neutralization IC50 [35]: 3.36 µg/mL
6 | PGT-135 monoclonal antibody (5343_B08; 5344_E16) | > 50 | 0.073 | 0.011 | > 50 | > 50 | > 50 | 0.014 | 0.716 | > 50 | > 50 | 5.15 | 0.131 | > 50 | > 50 | > 50 | > 50 | > 50 | > 50 | > 50 | > 50 | neutralization IC50 [21]: 0.166 µg/mL; neutralization IC50 [22]: > 50 µg/mL; neutralization IC50 [23]: > 50 µg/mL; neutralization IC50 [24]: 0.057 µg/mL; neutralization IC50 [25]: 0.329 µg/mL; neutralization IC50 [26]: > 50 µg/mL; neutralization IC50 [27]: 8.03 µg/mL; neutralization IC50 [28]: > 50 µg/mL; neutralization IC50 [29]: > 50 µg/mL; neutralization IC50 [30]: 21.8 µg/mL; neutralization IC50 [31]: 0.023 µg/mL; neutralization IC50 [32]: > 50 µg/mL; neutralization IC50 [33]: > 50 µg/mL; neutralization IC50 [34]: 0.03 µg/mL; neutralization IC50 [35]: 0.142 µg/mL
